The values below come from US20190388506A1.

Chain of C3b (purified) (P01024 749-1663, chain 1 of 2): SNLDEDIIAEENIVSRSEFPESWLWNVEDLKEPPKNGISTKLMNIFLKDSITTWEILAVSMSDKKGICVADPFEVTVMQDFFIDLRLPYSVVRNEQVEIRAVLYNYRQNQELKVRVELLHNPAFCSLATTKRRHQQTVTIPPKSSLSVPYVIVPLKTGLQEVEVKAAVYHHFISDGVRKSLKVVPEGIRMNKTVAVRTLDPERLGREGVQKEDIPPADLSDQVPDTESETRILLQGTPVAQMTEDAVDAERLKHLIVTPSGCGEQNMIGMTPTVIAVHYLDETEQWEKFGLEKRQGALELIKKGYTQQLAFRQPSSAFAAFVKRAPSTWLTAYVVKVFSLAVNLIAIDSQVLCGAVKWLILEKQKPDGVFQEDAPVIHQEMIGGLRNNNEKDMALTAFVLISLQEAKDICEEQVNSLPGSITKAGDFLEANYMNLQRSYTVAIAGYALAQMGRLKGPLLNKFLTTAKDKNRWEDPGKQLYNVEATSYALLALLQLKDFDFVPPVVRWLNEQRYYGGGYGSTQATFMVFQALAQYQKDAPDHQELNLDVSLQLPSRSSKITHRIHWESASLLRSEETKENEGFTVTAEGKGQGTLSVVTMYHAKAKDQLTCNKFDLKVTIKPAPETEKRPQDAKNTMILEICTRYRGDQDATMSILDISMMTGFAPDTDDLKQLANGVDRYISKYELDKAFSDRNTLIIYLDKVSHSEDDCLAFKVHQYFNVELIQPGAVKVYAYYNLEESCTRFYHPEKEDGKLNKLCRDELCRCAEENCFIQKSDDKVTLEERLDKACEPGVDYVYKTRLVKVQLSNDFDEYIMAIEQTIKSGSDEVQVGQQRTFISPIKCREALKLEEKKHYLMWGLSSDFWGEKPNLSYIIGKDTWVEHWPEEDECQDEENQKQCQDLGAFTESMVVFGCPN
Chain of C3b (purified) (P01024 23-667, chain 2 of 2): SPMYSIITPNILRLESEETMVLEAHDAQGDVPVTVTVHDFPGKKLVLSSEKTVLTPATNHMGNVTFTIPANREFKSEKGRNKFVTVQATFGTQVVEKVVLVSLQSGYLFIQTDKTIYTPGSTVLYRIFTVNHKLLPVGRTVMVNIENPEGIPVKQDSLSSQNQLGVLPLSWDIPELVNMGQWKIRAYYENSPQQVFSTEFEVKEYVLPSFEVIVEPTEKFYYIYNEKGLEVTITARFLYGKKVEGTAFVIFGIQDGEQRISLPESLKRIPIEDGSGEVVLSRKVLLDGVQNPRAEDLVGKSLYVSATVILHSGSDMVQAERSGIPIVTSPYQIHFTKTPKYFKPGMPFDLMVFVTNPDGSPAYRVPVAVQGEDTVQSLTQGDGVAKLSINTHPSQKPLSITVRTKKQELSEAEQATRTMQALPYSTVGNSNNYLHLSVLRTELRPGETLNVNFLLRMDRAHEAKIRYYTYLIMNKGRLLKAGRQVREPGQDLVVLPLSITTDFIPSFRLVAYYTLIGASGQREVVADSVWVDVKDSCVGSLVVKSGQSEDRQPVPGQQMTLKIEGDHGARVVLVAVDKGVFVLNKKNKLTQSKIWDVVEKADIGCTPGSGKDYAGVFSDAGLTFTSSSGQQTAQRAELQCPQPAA

The target in one test is C3 convertase (C3bBb) (human) (UniProt P01024). Put plainly: cell-based or functional assay.
Chain of C3 convertase (C3bBb) (human) (P01024 749-1663, chain 1 of 2): as the sequence (P01024 749-1663, chain 1 of 2) above
Chain of C3 convertase (C3bBb) (human) (P00751 260-764, chain 2 of 2, further chain): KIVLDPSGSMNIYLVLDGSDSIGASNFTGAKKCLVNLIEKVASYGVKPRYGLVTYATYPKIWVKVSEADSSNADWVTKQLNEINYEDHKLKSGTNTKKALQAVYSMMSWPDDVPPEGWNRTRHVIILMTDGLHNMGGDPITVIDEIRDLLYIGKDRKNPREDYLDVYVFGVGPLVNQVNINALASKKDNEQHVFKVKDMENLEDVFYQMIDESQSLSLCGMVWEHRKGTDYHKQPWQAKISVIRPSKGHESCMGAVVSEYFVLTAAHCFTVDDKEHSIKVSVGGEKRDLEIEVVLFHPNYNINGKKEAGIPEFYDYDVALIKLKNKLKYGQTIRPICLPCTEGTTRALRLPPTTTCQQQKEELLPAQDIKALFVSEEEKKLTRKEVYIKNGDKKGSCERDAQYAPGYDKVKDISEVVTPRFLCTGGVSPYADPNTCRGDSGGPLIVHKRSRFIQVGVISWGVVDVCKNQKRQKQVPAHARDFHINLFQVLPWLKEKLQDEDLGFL
With “FH fragment "SCR1-6" (SCR 1 to 6 of human factor H) (from UniProt P08603 19-388)”, the Anti-C3 convertase (EC50 µg/ml) stood at 0.093 µg/mL.

A further test concerns the target C3b (purified) (UniProt P01024). Kind of test: cell-based or functional assay.
“FH fragment "7CT20" (SCR 7 to 20 of human factor H) (from UniProt P08603 389-1231)” displayed an F1 cofactor (%) of 0%. For “FH fragment "1NT7" (SCR 1 to 7 of human factor H) (from UniProt P08603 19-447)”, the F1 cofactor (%) worked out at 100%. On the same count and under the same terms, in the case of “FH fragment "1NT18" (SCR 1 to 18 of human factor H) (from UniProt P08603 19-1102)” it was 100%. As for “FH fragment "8CT20" (SCR 8 to 20 of human factor H) (from UniProt P08603 448-1231)”, the F1 cofactor (%) came out at 0%.

For “FH fragment "SCR1-6" (SCR 1 to 6 of human factor H) (from UniProt P08603 19-388)”, the F1 cofactor (%) came to 100%. On the same count and under the same terms, the result for “FH fragment "7CT18" (SCR 7 to 18 of human factor H) (from UniProt P08603 389-1102)” reads 0%; that for “FH fragment "SCR6-8" (SCR 6 to 8 of human factor H)”, 0%; that for “FH fragment "SCR1-4" (SCR 1 to 4 of human factor H)”, 100%.
